Tested on: A431 cells
Experiment: Evaluation of intracellular transfer ability of peptide (cytotoxicity test by PSIF; MTT assay)
Type: cell-based, human
Settings: 5 μL culture supernatant containing fusion body of peptide and PSIF, cycloheximide 10 μg/mL, 24 hours, viability of TAT peptide (Tat 48-60)-PSIF group taken as 100%
Experimental: Subsequently, using a fusion body of the peptide and PSIF (protein synthesis inhibitory factor) obtained by recombining each library gene in a PSIF-expressing vector, the intracellular transfer activity of the peptide was evaluated using the cytotoxicity by PSIF as an indicator. […] The screening was performed using a supernatant of the culture of Escherichia coli producing the fusion body of the peptide and PSIF. As a result, it can be confirmed that the clone having the ability to penetrate into the cell is selectively enriched as the panning is repeated. It was successful to yield many clones having a higher introduction efficiency than TAT peptide currently described to be the most excellent in introduction efficiency.
The plasmids collected from the library (input) made and the libraries after the 2nd, 3rd and 4th panning were treated with NcoI (Toyobo Co., Ltd.) and NotI. A plasmid expressing the fusion body of the peptide and PSIF was constructed by incorporating the treated plasmid into PSIF expression vector pY7 (PSIF expression codons had been incorporated into pCantab5e) previously treated with NcoI and NotI using a ligation kit (Takara Shuzo Co., Ltd.). […]; A04646) or Pseudomonas microbial cell exotoxin (GenBank; K01397) (FIG. 6) was utilized.
The plasmid expressing the fusion body of the peptide and PSIF was introduced into TG1 by electroporation, and resulting colonies were randomly picked up into a 96-well plate (NUNC™) and cultured overnight. To a plate in which 100 μL of the 2YT medium containing 50 μg/mL of ampicillin and 2% glucose was newly added, 10 μL of the culture medium cultured overnight was added and cultured until OD600=0.4 to 0.5. The culture was centrifuged at 3,000 rpm for 20 minutes, the supernatant was removed, and 200 μL of the 2YT medium containing 1 mM IPTG (Sigma Aldrich Inc.) and 50 μg/mL of ampicillin was added to the plate, which was then cultured at 37° C. for 12 hours. The culture was centrifuged again at 3,000 rpm for 20 minutes, and the resulting supernatant was subjected to the following screening.
A431 cells diluted at 1.0×10^4 cells/well with Opti-MEM (Invitrogen™ life technologies) were seeded in a 96-well plate, and cycloheximide (Wako Pure Chemical Industries Ltd.) at a final concentration of 10 μg/mL was added thereto. Then, 5 μL of the culture supernatant made according to the above method was added, and the cells were cultured at 37° C. under the saturated vapor pressure and 5% carbon dioxide gas phase for 24 hours. Subsequently, 10 μL/well of 5 mg/mL of MTT (Wako Pure Chemical Industries Ltd.) solution was added, and further cultured at 37° C. for 4 hours. Then, 100 μL/well of 20% SDS (Wako Pure Chemical Industries Ltd., Osaka, Japan)/0.01 N HCl was added and the plate was left stand in a dark place for 4 hours. The intracellular transfer ability of the peptide was evaluated using the cytotoxicity by PSIF introduced into the cells by the peptide as the indicator by measuring absorbance using a microplate reader (Test wave length: 595 nm/Reference wave length: 655 nm). Viability was calculated by making the viability in the group treated with the culture supernatant containing the fusion body of the TAT peptide (Tat 48-60) and PSIF 100%.

“GRKKRRQRRRPPQ [SEQ ID NO 17, TAT peptide (Tat 48-60) derived from HIV Tat protein, reference compound]” showed a Viability of 100%.

For “RRRRNRTRRNRRRVR [SEQ ID NO 4, cell permeable peptide, tested as fusion body with PSIF]”, the Viability was “about 93%”.

For “SPGNQSTGVIGTPSFSNH [SEQ ID NO 11, cell permeable peptide, tested as fusion body with PSIF]”, the Viability was “about 45%”.

With “STAPGSLQEDILDSVPA [SEQ ID NO 12, cell permeable peptide, tested as fusion body with PSIF]” the Viability was “about 85%”.

For “GIASNGQLPTPKT [SEQ ID NO 5, cell permeable peptide, tested as fusion body with PSIF]”, the Viability was “about 35%”.

In the case of “GSNFFYQHRLPFS [SEQ ID NO 1, cell permeable peptide, tested as fusion body with PSIF]”, the Viability is reported as “about 45%”.

With “GLFNWLQLRPPSW [SEQ ID NO 2, cell permeable peptide, tested as fusion body with PSIF]” the Viability was “about 80%”.

In the case of “SSGANYFFNAIYDFLSNF [SEQ ID NO 15, cell permeable peptide, tested as fusion body with PSIF]”, the Viability is reported as “about 35%”.

In the case of “STHLQYHVNYTSRTVVSM [SEQ ID NO 8, cell permeable peptide, tested as fusion body with PSIF]”, the Viability is reported as “about 60%”.

With “MSDPNMNPGTLGSSHILW [SEQ ID NO 10, cell permeable peptide, tested as fusion body with PSIF]” the Viability was “about 30%”.

With “SMTTMEFGHSMITPYKID [SEQ ID NO 7, cell permeable peptide, tested as fusion body with PSIF]” the Viability was “about 45%”.

With “YSSAYEWFNRYKQPYYEL [SEQ ID NO 14, cell permeable peptide, tested as fusion body with PSIF]” the Viability was “about 65%”.

With “SGEHTNGPSKTSVRWVWD [SEQ ID NO 6, cell permeable peptide, tested as fusion body with PSIF]” the Viability was “about 35%”.

In the case of “QDGGTWHLVAYCAKSHRY [SEQ ID NO 9, cell permeable peptide, tested as fusion body with PSIF]”, the Viability is reported as “about 45%”.

With “SPTRPTHQGLLPVSNKYT [SEQ ID NO 13, cell permeable peptide, tested as fusion body with PSIF]” the Viability was “about 77%”.

In the case of “GILLRNQVLPPQI [SEQ ID NO 3, cell permeable peptide, tested as fusion body with PSIF]”, the Viability is reported as “about 65%”.

In the case of “GTSRANSYDNLKSETLTQ [SEQ ID NO 16, cell permeable peptide, tested as fusion body with PSIF]”, the Viability is reported as “about 15%”.
